Results as given in the Human Domainome abundance scans (Beltran et al. 2025).
± gives the uncertainty stated by the source.

B1: Pituitary-specific positive transcription factor 1, residues 130 to 198; numbered along this chain, P28069 (parent)
chain: RELEKFANEFKVRRIKLGYTQTNVGEALAAVHGSEFSQTTICRFENLQLSFKNACKLKAILSKWLEEAE

Variants of: B1
Assay: abundance fitness (aPCA) (normalised: wild type 0, dead -1); higher = more abundant; growth selection in yeast, the domain comes from the species named
Details: Homo sapiens

Q: For RELEKFANEFKVRRIKLGYTQTNVGEALAAVHGSEFSQTTICRGENLQLSFKNACKLKAILSKWLEEAE [F44G], which abundance fitness is on record?
A: The abundance fitness was -1.03 ± 0.2.

Q: For RELEKFANEFKVRRIKLGYTQTNVGEALAAVHGSEFSQTTICRPENLQLSFKNACKLKAILSKWLEEAE [F44P], which abundance fitness is on record?
A: Its abundance fitness is -0.936 ± 0.19.

Q: Which abundance fitness does the source give for RELEKFANEFKVRRIKLGYTQTNVGEALAAVHGSEFSQTTICRDENLQLSFKNACKLKAILSKWLEEAE [F44D] here?
A: Its abundance fitness is -0.866 ± 0.28.

Q: Which abundance fitness does the source give for RELEKFANEFKVRRIKLGYTQTNVGEALAAVHGSEFSQTTICRTENLQLSFKNACKLKAILSKWLEEAE [F44T] here?
A: The abundance fitness was -1.06 ± 0.23.

Q: For RELEKFANEFKVRRIKLGYTQTNVGEALAAVHGSEFSQTTICRYENLQLSFKNACKLKAILSKWLEEAE [F44Y], which abundance fitness is on record?
A: The abundance fitness was -0.842 ± 0.13.

Q: With RELEKFANEFKVRRIKLGYTQTNVGEALAAVHGSEFSQTTICRFENKQLSFKNACKLKAILSKWLEEAE [L47K] as the variant, how does the abundance fitness read?
A: Its abundance fitness is -0.064 ± 0.057.

Q: For RELEKFANEFKVRRIKLGYTQTNVGEALAAVHGSEFSQTTICRFENPQLSFKNACKLKAILSKWLEEAE [L47P], which abundance fitness is on record?
A: The abundance fitness was -0.804 ± 0.25.

Q: Which abundance fitness does the source give for RELEKFANEFKVRRIKLGYTQTNVGEALAAVHGSEFSQTTICRFENAQLSFKNACKLKAILSKWLEEAE [L47A] here?
A: The abundance fitness was -0.204 ± 0.082.

Q: Which abundance fitness does the source give for RELEKFANEFKVRRIKLGYTQTNVGEALAAVHGSEFSQTTICRFENSQLSFKNACKLKAILSKWLEEAE [L47S] here?
A: Its abundance fitness is -0.168 ± 0.072.

Q: With RELEKFANEFKVRRIKLGYTQTNVGEALAAVHGSEFSQTTICRFENHQLSFKNACKLKAILSKWLEEAE [L47H] as the variant, how does the abundance fitness read?
A: Its abundance fitness is 0.164 ± 0.11.

Q: Which abundance fitness does the source give for RELEKFANEFKVRRIKLGYTQTNVGEALAAVHGSEFSQTTICRFENFQLSFKNACKLKAILSKWLEEAE [L47F] here?
A: The abundance fitness was -0.562 ± 0.12.

Q: For RELEKFANEFKVRRIKLGYTQTNVGEALAAVHGSEFSQTTICRFENEQLSFKNACKLKAILSKWLEEAE [L47E], which abundance fitness is on record?
A: The abundance fitness was -0.635 ± 0.16.

Q: With RELEKFANEFKVRRIKLGYTQTNVGEALAAVHGSEFSQTTICRFENWQLSFKNACKLKAILSKWLEEAE [L47W] as the variant, how does the abundance fitness read?
A: The abundance fitness was -0.789 ± 0.22.

Q: Which abundance fitness does the source give for RELEKFANEFKVRRIKLGYTQTNVGEALAAVHGSEFSQTTICRFENNQLSFKNACKLKAILSKWLEEAE [L47N] here?
A: Its abundance fitness is 0.187 ± 0.065.

Q: For RELEKFANEFKVRRIKLGYTQTNVGEALAAVHGSEFSQTTICRFENVQLSFKNACKLKAILSKWLEEAE [L47V], which abundance fitness is on record?
A: Its abundance fitness is -0.888 ± 0.19.

Q: For RELEKFANEFKVRRIKLGYTQTNVGEALAAVHGSEFSQTTICRFENYQLSFKNACKLKAILSKWLEEAE [L47Y], which abundance fitness is on record?
A: The abundance fitness was -0.428 ± 0.094.

Q: For RELEKFANEFKVRRIKLGYTQTNVGEALAAVHGSEFSQTTICRFENCQLSFKNACKLKAILSKWLEEAE [L47C], which abundance fitness is on record?
A: Its abundance fitness is 0.155 ± 0.15.

Q: With RELEKFANEFKVRRIKLGYTQTNVGEALAAVHGSEFSQTTICRFENIQLSFKNACKLKAILSKWLEEAE [L47I] as the variant, how does the abundance fitness read?
A: The abundance fitness was -0.866 ± 0.34.

Q: Which abundance fitness does the source give for RELEKFANEFKVRRIKLGYTQTNVGEALAAVHGSEFSQTTICRFENDQLSFKNACKLKAILSKWLEEAE [L47D] here?
A: Its abundance fitness is -0.689 ± 0.15.

Q: Which abundance fitness does the source give for RELEKFANEFKVRRIKLGYTQTNVGEALAAVHGSEFSQTTICRFENMQLSFKNACKLKAILSKWLEEAE [L47M] here?
A: The abundance fitness was 0.263 ± 0.082.

Q: For RELEKFANEFKVRRIKLGYTQTNVGEALAAVHGSEFSQTTICRFENTQLSFKNACKLKAILSKWLEEAE [L47T], which abundance fitness is on record?
A: The abundance fitness was -0.667 ± 0.23.

Q: With RELEKFANEFKVRRIKLGYTQTNVGEALAAVHGSEFSQTTICRFENRQLSFKNACKLKAILSKWLEEAE [L47R] as the variant, how does the abundance fitness read?
A: The abundance fitness was -0.065 ± 0.066.

Q: For RELEKFANEFKVRRIKLGYTQTNVGEALAAVHGSEFSQTTICRFENGQLSFKNACKLKAILSKWLEEAE [L47G], which abundance fitness is on record?
A: The abundance fitness was 0.292 ± 0.063.

Q: With RELEKFANEFKVRRIKLGYTQTNVGEALAAVHGSEFSQTTICRFEGLQLSFKNACKLKAILSKWLEEAE [N46G] as the variant, how does the abundance fitness read?
A: The abundance fitness was -0.311 ± 0.094.

Q: With RELEKFANEFKVRRIKLGYTQTNVGEALAAVHGSEFSQTTICRFESLQLSFKNACKLKAILSKWLEEAE [N46S] as the variant, how does the abundance fitness read?
A: Its abundance fitness is -0.085 ± 0.089.

Q: For RELEKFANEFKVRRIKLGYTQTNVGEALAAVHGSEFSQTTICRFEVLQLSFKNACKLKAILSKWLEEAE [N46V], which abundance fitness is on record?
A: The abundance fitness was -0.661 ± 0.31.

Q: For RELEKFANEFKVRRIKLGYTQTNVGEALAAVHGSEFSQTTICRFEALQLSFKNACKLKAILSKWLEEAE [N46A], which abundance fitness is on record?
A: The abundance fitness was -0.15 ± 0.1.

Q: For RELEKFANEFKVRRIKLGYTQTNVGEALAAVHGSEFSQTTICRFEHLQLSFKNACKLKAILSKWLEEAE [N46H], which abundance fitness is on record?
A: Its abundance fitness is -0.545 ± 0.12.

Q: Which abundance fitness does the source give for RELEKFANEFKVRRIKLGYTQTNVGEALAAVHGSEFSQTTICRFEMLQLSFKNACKLKAILSKWLEEAE [N46M] here?
A: The abundance fitness was -0.492 ± 0.12.

Q: For RELEKFANEFKVRRIKLGYTQTNVGEALAAVHGSEFSQTTICRFECLQLSFKNACKLKAILSKWLEEAE [N46C], which abundance fitness is on record?
A: The abundance fitness was -0.787 ± 0.42.

Q: Which abundance fitness does the source give for RELEKFANEFKVRRIKLGYTQTNVGEALAAVHGSEFSQTTICRFERLQLSFKNACKLKAILSKWLEEAE [N46R] here?
A: Its abundance fitness is -0.313 ± 0.056.

Q: Which abundance fitness does the source give for RELEKFANEFKVRRIKLGYTQTNVGEALAAVHGSEFSQTTICRFEFLQLSFKNACKLKAILSKWLEEAE [N46F] here?
A: Its abundance fitness is -0.798 ± 0.24.

Q: Which abundance fitness does the source give for RELEKFANEFKVRRIKLGYTQTNVGEALAAVHGSEFSQTTICRFEKLQLSFKNACKLKAILSKWLEEAE [N46K] here?
A: The abundance fitness was -0.266 ± 0.11.

Q: Which abundance fitness does the source give for RELEKFANEFKVRRIKLGYTQTNVGEALAAVHGSEFSQTTICRFEDLQLSFKNACKLKAILSKWLEEAE [N46D] here?
A: Its abundance fitness is -0.112 ± 0.098.

Q: Which abundance fitness does the source give for RELEKFANEFKVRRIKLGYTQTNVGEALAAVHGSEFSQTTICRFETLQLSFKNACKLKAILSKWLEEAE [N46T] here?
A: The abundance fitness was -0.579 ± 0.12.

Q: For RELEKFANEFKVRRIKLGYTQTNVGEALAAVHGSEFSQTTICRFEYLQLSFKNACKLKAILSKWLEEAE [N46Y], which abundance fitness is on record?
A: Its abundance fitness is -0.732 ± 0.35.

Q: With RELEKFANEFKVRRIKLGYTQTNVGEALAAVHGSEFSQTTICRFELLQLSFKNACKLKAILSKWLEEAE [N46L] as the variant, how does the abundance fitness read?
A: Its abundance fitness is -0.493 ± 0.089.

Q: With RELEKFANEFKVRRIKLGYTQTNVGEALAAVHGSEFSQTTICRFEWLQLSFKNACKLKAILSKWLEEAE [N46W] as the variant, how does the abundance fitness read?
A: Its abundance fitness is -0.851 ± 0.2.

Q: For RELEKFANEFKVRRIKLGYTQTNVGEALAAVHGSEFSQTTICRFEPLQLSFKNACKLKAILSKWLEEAE [N46P], which abundance fitness is on record?
A: The abundance fitness was -0.89 ± 0.4.
